Assay [1] deals with substrate TNO211. Kind of assay: Study #3: protease detection sensitivity, visual detection under UV. The conditions noted are these: within 10 minutes; from 17% and 28% of pronase activity. Format: biochemical. The procedure: To investigate the visual detection limits of pronase, standard curves (1000-0 ng) of the protease were reacted in 50, 100, and 200 uM substrate diluted in the assay buffer. Digital photographs were taken under white light and UV. These observations were compared to those obtained quantitatively using the fluorescence plate reader. The observed detection limits for pronase were used to calculate theoretical detection limits for MMP-2 and MMP-9 (17% and 28% as active as pronase, respectively).

The test system of assay [2] is substrate TNO211. Kind of assay: Study #1: time-to-detection of protease activity, cleavage of substrate TNO211 by fluorescence. Format: biochemical. Particulars: protease concentrations ≦100 ng/ml. The procedure: 1. Prepare a suitable standard curve diluted in enzyme buffer. Typically, a maximum of 50 ng/ml final protease concentration in the assay is used. Keep on ice until use.
2. Prepare the substrate solution by diluting the Stock Reconstituted Substrate (in DMSO) to 5.56 uM in the desired Assay Buffer (EDTA-free or EDTA-containing) to produce 90 ul of total EDTA-free or EDTA-containing Assay Buffer per well.
3. Pipette 90 ul substrate solution into each well to be assayed.
4. Take an initial fluorescence reading. To minimize interference due to the fluorescence of endogenous proteins in the samples, we routinely use excitation/emission wavelengths of 355/535 nm, respectively.
5. Pipette 10 ul standards, samples, or Enzyme Buffer (BLANK) into each well of the 96-well fluorescence assay plate.
6. Measure the change in fluorescence continuously until the standard range of interest is sufficiently resolved. Protect from light at RT or 37° C. between measurements.
7. Determine the best-fit curve relating the Change in Fluorescence (AF) vs.
[Protease]. […]
One hundred, 10, 1, and 0.1 ng of pronase, MMP-2, MMP-9, and clostridial collagenase were assayed in a total reaction volume of 100 ul for cleavage of substrate TNO211 as detected by fluorescence. The reactions were monitored for approximately one hour after the addition of the proteases.

Where “and” joins values, the source holds several entries; their conditions need not be identical. Equal entries are not always repeated.

B1: MMP-2: protease assayed for cleavage of substrate TNO211 (protein)
chain: YNFFPRKPKWDKNQITYRIIGYTPDLDPETVDDAFARAFQVWSDVTPLRFSRIHDGEADIMINFGRWEHGDGYPFDGKDGLLAHAFAPGTGVGGDSHFDDDELWTLGEGQVVRVKYGNADGEYCKFPFLFNGKEYNSCTDTGRSDGFLWCSTTYNFEKDGKYGFCPHEALFTMGGNAEGQPCKFPFRFQGTSYDSCTTEGRTDGYRWCGTTEDYDRDKKYGFCPETAMSTVGGNSEGAPCVFPFTFLGNKYESCTSAGRSDGKMWCATTANYDDDRKWGFCPDQGYSLFLVAAHEFGHAMGLEHSQDPGALMAPIYTYTKNFRLSQDDIKGIQELYGASPDIDLGTGPTPTLGPVTPEICKQDIVFDGIAQIRGEIFFFKDRFIWRTVTPRDKPMGPLLVATFWPELPEKIDAVYEAPQEEKAVFFAGNEYWIYSASTLERGYPKPLTSLGLPPDVQRVDAAFNWSKNKKTYIFAGDKFWRYNEVKKKMDPGFPKLIADAWNAIPDNLDAVVDLQGGGHSYFFKGAYYLKLENQSLKSVKFGSIKSDWLGC
As to B1, the “theoretical detection limit calculated from pronase limit” value with substrate TNO211 [1] is recorded as “approximately 735 ng”. For the same molecule, the “activity as % of pronase's observed activity” value in the assay with substrate TNO211 [2] is 17±4% and 17%.

The record behind these values is patent US20080176263A1, “Materials and Methods for Efficient and Accurate Detection of Analytes” (University of Florida Research Foundation, Inc., priority 2006, published 2008).
